Assay results as given in the supplement of paper PMC10724198.
± gives the standard deviation of the averaged measurements.

Test system: Saccharomyces cerevisiae
Assay: protein stability index of tFT-peptide fusion (C-terminal peptide) (PSI (0-1 scale)); higher = more stable (slower turnover)
Details: genetic background: wild type; temperature: 30 C
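Also: PSI is a weighted mean of sequencing reads over stability bins, variants kept only with over 10 reads, mCherry proximal and sfGFP distal, peptide attached via GGGS linker.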

Row | Sequence | protein stability index
1 | PPPRTLARSRLP | 0.74 ± 0.016
2 | PPPRTYLPRPRL | 0.764 ± 0.0085
3 | PPPSDPPPSPPP | 0.665 ± 0.016
4 | PPPSFPDWRYRW | 0.755 ± 0.017
5 | PPPSFPPFFPSF | 0.731 ± 0.014
6 | PPPSHPLSPPRP | 0.717 ± 0.24
7 | PPPSPAPLPAGP | 0.682 ± 0.061
8 | PPPSPPPPPSLP | 0.669 ± 0.019
9 | PPPSPRSAPAAS | 0.711 ± 0.1
10 | PPPSPTSPPPPS | 0.69 ± 0.018
11 | PPPSSSLLPLPF | 0.817 ± 0.14
12 | PPPSTPLSPSSP | 0.72 ± 0.11
13 | PPPTHPHLSSAL | 0.73 ± 0.04
14 | PPPTHRDPLPTP | 0.684 ± 0.048
15 | PPPTPSSLLSTP | 0.701 ± 0.057
16 | PPPTSSALPALV | 0.736 ± 0.037
17 | PPPVLSLPPLPV | 0.668 ± 0.028
18 | PPPVPLPPPRSL | 0.736 ± 0.055
19 | PPPVPPLGPSRA | 0.693 ± 0.044
20 | PPQGPVAPRKTP | 0.708 ± 0.018
21 | PPQPTSPIRMPT | 0.735 ± 0.03
22 | PPRLASFYIILG | 0.571
23 | PPRLHPNTPPLL | 0.765 ± 0.08
24 | PPRPPGFPPALF | 0.697 ± 0.018
25 | PPRPPPHPAPLS | 0.755 ± 0.019
26 | PPRPPRPPYPPP | 0.609 ± 0.024

Row | Sequence | protein stability index
27 | PPRPPSPPASRA | 0.77 ± 0.076
28 | PPRSPPPTPPLF | 0.611 ± 0.01
29 | PPRVPCLVPKSR | 0.715 ± 0.014
30 | PPSAPPPLPPLL | 0.7599 ± 0.0043
31 | PPSAPPPSYHPP | 0.607 ± 0.045
32 | PPSDRPTVPPPP | 0.709 ± 0.017
33 | PPSFDPSPPSSL | 0.696 ± 0.042
34 | PPSGPTDTQEQG | 0.661 ± 0.035
35 | PPSLEPFSPSPR | 0.639 ± 0.013
36 | PPSLLPFDPSLP | 0.708 ± 0.082
37 | PPSLLRPYPLLS | 0.66 ± 0.028
38 | PPSLPPPPLSQP | 0.68 ± 0.026
39 | PPSLPRPPAFAP | 0.689 ± 0.023
40 | PPSPARFPPPSS | 0.632 ± 0.015
41 | PPSPHPPPSAPP | 0.6411 ± 0.0028
42 | PPSPLPPPPPHP | 0.651 ± 0.079
43 | PPSPPALPRFLL | 0.697 ± 0.025
44 | PPSPPAVISAGL | 0.716 ± 0.066
45 | PPSPPCHTVTSA | 0.679 ± 0.054
46 | PPSPPHIHTYLT | 0.6939 ± 0.0011
47 | PPSPPPPLPPPA | 0.6897 ± 0.0041
48 | PPSPPPPPPRPP | 0.64 ± 0.022
49 | PPSPSPLPPRPL | 0.717 ± 0.04
50 | PPSRLYFLSPRS | 0.746 ± 0.039
51 | PPSRPPPRLLFA | 0.659 ± 0.048
52 | PPSSPPLAPPFL | 0.709 ± 0.029

Row | Sequence | protein stability index
53 | PPSSPPLQHPPP | 0.598 ± 0.038
54 | PPSSPPPPDSDR | 0.6746 ± 0.0037
55 | PPSTNRDGRKRT | 0.644 ± 0.026
56 | PPSWLPLLPPPP | 0.688 ± 0.078
57 | PPSYYPPPYLAF | 0.653 ± 0.034
58 | PPTLHVSPLCPL | 0.607 ± 0.013
59 | PPTPPCTSSPAR | 0.739 ± 0.084
60 | PPTPRLPPPRLP | 0.67 ± 0.045
61 | PPTQSRLPLPLL | 0.674 ± 0.033
62 | PPVISAPIPLAP | 0.688 ± 0.052
63 | PPVLRTPPAPLI | 0.681 ± 0.058
64 | PPVPPPSPPRLL | 0.673 ± 0.03
65 | PPVTAPPPPLRS | 0.692 ± 0.014
66 | PQAQCTALLTQR | 0.659 ± 0.085
67 | PQESRAWTLSSA | 0.713 ± 0.05
68 | PQPRDSLFSLGN | 0.691 ± 0.032
69 | PQRRPPASTRSD | 0.682 ± 0.018
70 | PQRTTPPRRHTA | 0.717 ± 0.032
71 | PQTPPSTLLLPP | 0.61 ± 0.1
72 | PRALSMGGPRYQ | 0.5929 ± 0.0021
73 | PRAPPPSPPPRP | 0.651 ± 0.04
74 | PRCRSLPPLRVL | 0.6975 ± 0.0037
75 | PRDTTIPLVLGF | 0.63756 ± 0.00037
76 | PRFFTRYRCYSA | 0.793 ± 0.064
77 | PRFGADVQKLVG | 0.653 ± 0.045
78 | PRFPLPPHPSPR | 0.704 ± 0.03

Row | Sequence | protein stability index
79 | PRGKVLPFAFAC | 0.554 ± 0.019
80 | PRGLRIHSRLRG | 0.678 ± 0.01
81 | PRGPPGILSRPP | 0.6736 ± 0.00089
82 | PRGSSRSTFFLF | 0.603 ± 0.046
83 | PRHYSPPPVPSR | 0.686 ± 0.026
84 | PRIWDLVDIGTL | 0.735 ± 0.022
85 | PRLCLVAGRCRS | 0.614 ± 0.04
86 | PRLFLSICPFSF | 0.682 ± 0.051
87 | PRLPHPPPFDSL | 0.676 ± 0.016
88 | PRLPHPPPPLPL | 0.669 ± 0.079
89 | PRLPPRSPRPPA | 0.7369 ± 0.0048
90 | PRLVFSVSSLGL | 0.7 ± 0.038
91 | PRLVTLALPRTR | 0.716 ± 0.015
92 | PRPALRPLPVYP | 0.612 ± 0.068
93 | PRPAPPPPSTPP | 0.6411 ± 0.0051
94 | PRPCSPPPPDPC | 0.703 ± 0.022
95 | PRPFAPPPPPHD | 0.808 ± 0.094
96 | PRPHPPPLPCPP | 0.714 ± 0.04
97 | PRPLASRITSPA | 0.692 ± 0.036
98 | PRPLPPPLPCPP | 0.682 ± 0.015
99 | PRPLPPPPPLST | 0.654 ± 0.061
100 | PRPLSPLPPSAL | 0.66 ± 0.05
101 | PRPPAGSFPSSL | 0.7 ± 0.053
